# The domain aggregation screens of Martell et al. (2025)
# Test: soluble fraction after stress (log2 fold change); higher = more stays soluble; pooled small domains, quantitative proteomics
# Conditions: stress: 50 degC
# Procedure, shortened: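 Custom libraries of small protein domains were pooled and measured in a high-throughput format, with quantitative proteomics as the read-out. Each library was stressed at 50°C. The value is the log2 fold change in the amount of each protein that stays soluble after stress, used as a measure of aggregation propensity; higher values mean more of the protein stays soluble.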
row,Sequence,soluble fraction (log2)
1,HMVSAMLLHKKEILNLLAEEPEALHFASLLRAFGGRHIKNELKQIVDDLVRSGEILRLRGNRYTLPGADN,-1.21
2,HMSDMIGQNIRRLRTEKQMTQKALADKLFVTAQAVSRWENGEVEPSLSTVTEIARIFNVSADEILGI,-0.0125
3,HMESSYKGFILDIETRQFSPTLIQRRGIAINPSGIVETTTEFSFATQEKVLIEDLKLIIDELDLRADY,-4.07
4,HMDYGTATASAILYLEKIDPENPYLLLAKDTITTNPKMSVNFALKGIIESKKGEKEENLNKALEIMSSL,0.049
5,HMYVTGSAIRRLREKRKLTQAQLAAALSVSDKTVSKWETARGLPDITLLEPLARALQVSVPELLSGEEV,-0.255
6,HMESPELIHILKEAEWQIWQQIQGLPEKQRIAMTLFAMDDLSYQEIADVMKVSVSAIESLLFRARTQLKKY,-0.601
7,HMQMSWDAVKARLQDIVNNEDKTKPFNDEMLASKLKEQGIEIARRTVVKYRQQLGIPAARLRKK,-0.468
8,HMALIGSNLRHLRNERKLSQQELADLIRVGRTTIANIEANLANPGHKTLLEIVKVFDITIDELLHTDLTK,-0.886
9,HMQFHQDNYALEFIRDLQPVDGAIILSRFKQFDLVELEKAKKIKFSDEHMAWTLYDYDIKKIN,-2.3
10,HMKTSVGSKMMVMANNLSIRKSANLLSEKLADLSKGDMVEYISSTNGWNKVRYNGYVGYVSSYYLKDTGEV,-0.738
11,HMGESVVVPDLRGKTLEEARAILKKVDLDYEINDSTYSKTAVPGTIRDIVPAPGSHVKAGRILFVSING,-0.145
12,HMLDQAVPVFETPKYAVSYIQNRLVEMKAASPEEAASRFYESISESERRGLFEALLIKEAEES,-0.00154
13,HMGFVATRSRKFLPFSEARAITRGLGFSNQKDYKEWIKGNGNELLLPFNPWRTYGDSGWKGWKDFLGTDKA,-1.03
14,HMEAFAEAVASMLRKLQPEFAIDLVGPRELLVNGRRLDLENLYRMVNHEPVRGQEIVEHYLDQLFAG,-0.53
15,HMNITHEINVKSKSKIDFLENNKNLAQFFLTKNPNQFNYNLVFSDKSELNIIKEKIESHKDIEDIDIRYG,0.0125
16,HMAQSEDLMVMAQRILGGPEAQSFFQAEATRQGLAGFLPEPIPDFLQRLERKLSGSVGSATAHAMVAQTMG,-0.179
17,HMKKATYDVMVREALVSFKKKGATLQSIKKKIKADYAIEANATAVKSAIQKGMEAGSIRKSYDLYFFMD,-2.12
18,HMFGIEIPEEAGKLQDYTLTDDDLEGGNTLKEIQFPQGARVVIIRRDDKFIIPDGSVELQSGDQLLIIYGE,-0.578
19,HMGPTPTSAQLTEAKRLRTKLDDLNPELAERLWSEHREPYTETQYQTLIEKLAAEVQSAEGEIGR,0.182
20,HMIDTPQELARLLRLLDEQNFEAEILFHKLRPDLLHLWSKEHVTRIAEALDAFDYQMALTLLNASP,-2.23
21,HMSARKVTVALHTRDHADRLRRLLKHEGVSADLVAARLSHKLTDHPIEVRVNEDDIPAVLRIIENIEIF,-1.31
22,HMTINPFSTLAVRELEILHYLLNGHRTKEIATNLGLKMNTVSTIKSNIFEKVKADSFTHLLQLAHVHQIS,-0.888
23,HMSENKIMEIVQDLAREKSVILISHRLANVTAADKILYMEQGKIAESGTHEQLMAQNKAYAALFNKQQEL,-0.11
24,HMDDIVFPNPTKNQINVSIDGLKNIYNLSGKLLISTNDKIIDVSILKAGVYFINTNEQFYKFVK,-1.3
25,HMSRPLISNMLRLLNLPPTVQRKVAAGVISAGHARALLGLNDEKEIEKLANRIVAEGLSVRATEEIVAIA,-0.937

row,Sequence,soluble fraction (log2)
1,HMANHIAAIHVLKSKLQMSDSDYRVLITGLTQKASTKDMSDIERQRVRDHMQGLAERMGVVK,-0.18
2,HMLSNYIGMTLGEAKRNLGQGVNITVNGPNNDNAEVTGQDPTSGSSFDKSKDTITLTT,0.0581
3,HMFMNFAEHLMALRKQRGWSQEELGSQIGVTRQTVSKWEMGQSTPELEKLVELSRLFGMSIDQLVGL,0.0203
4,HMHQPPDLDDFEAFVGRVKPALLQALVATYGPVDGREATVDALSWAWEHWDRLADVDHPVGYLYRV,0.0368
5,HMIKYTIEELGELTGFTRRTIRYYVQEGLIDPPAGRGRGGFYYDSHVQQLLRIKSFQEKGIGITAMVSLM,-2.51
6,HMRTITIDDSIAGKRLDEALTLLGAESSRTKVKLLFSSPNGVLVNGEKEKPHYRVEAGDVIQFGELPKK,0.271
7,HMTITDDETHKVLEEGASRMSEGLTFRDLVDLDRLHLTARGVIQKVLNENRIDADVDTIANMAQKLVARVS,-0.0539
8,HMGLKDTEVYMPDVRGLIEEEAQTKLKASFLTMKVSYTSSDEVKKGYVISQAPSADSVVLKGASVTVIVS,-2.07
9,HMKALHEEIAEKIQEQILRSNLAPGDKLDTELELAARYGVSRSTIRQALIQLESAGLIDRLHGRGTFVAD,0.425
10,HMDPNFKYIIRIANSDVSGEQKLAYALTSIRGIGERTSNAIIQKLGLDSTQLAGKLTDKNVEDIESA,-0.027
11,HMPPPVDLDKKGYKLRGIVLEDGRSAAFVFVPAEKRVVVLRENASGPVRLLETGMRRIRLQTPEGAGYLEL,-0.724
12,HMIKITLGWVISVRRHDLGYTQHKMARAVGISDLTVSRIESDDGITPDNNTLRKIAEYLKIDYNSLLTLK,-1.73
13,HMAIEMSTITKRVTSTGEIRYRALLQIRREDVNYTESRTFSKKSLAEAWLKKREVELEANPELLHQ,-1.32
14,HMDETELLLQKAIATLPDKQRVVFNLKYFDEMKYEEMSELLETSVGALKASYHLAVKKIEQFFHDA,-0.643
15,HMRRARVAGKGHFTGEDAMAVYRELEALFGETETLYLPGHRPFEAVLSKLALIGVPEKNTVPYTFAFVET,-0.433
16,HMLTGESDNVEKSINKLGTENLALADQTNMGFKGTFINSGHGMAIVVKTGMQTELGKIASMIQIA,0.21
17,HMHVLNEEYYNRIKAIQFTMNHDDGNSLNDIEKSDIILLGVSRTSKTPTSIYLANRGLRTSNIPLINEK,-0.326
18,HMYEHLKALRESLGMTQAEFGESVGVAKSTYNNYEIGARDPKSDFWIAVAQRYGVTIDYLMGFSDDPKKT,-1.65
19,HMTEKIVFNIDGQTGRIDKILADFMTGTSRSQIQAWVKDGNLMVNDKAVKSNYKVQDGDLLELTIPEPEQ,-0.171
20,HMTKLSPKEKSILHIIGDNAGIKSGQIAKRLDIPSPTVKRILSDLVSQNLIEKFGTGPGTNYSI,0.0531
21,HMGVQKGKDNALAVQQWIAERDATGDFGEYERRGIINRSALFDELGIPRSSMGSNDQIRQMIEAADVRWF,-0.189
22,HMGNKWKPIILYLLSNGSMRFGMLNALIPTISKKVLTNQLKELENDGLLLRQSFAEIPPRVEYSLTEKA,-1.58
23,HMSFVAYEEEKAIGMVRLIGDGGMSFYIKDFAVLPGHQGKGVGQMLLMELQQYLLEHKPADWAVSLE,-0.329
24,HMTSNKTVPYSELKGLISTGKIEYVGIGNTQIRAVSKSGAGIVTYTARRVIPDDTLIPELEKNGIAYGGI,-0.108
25,HMRSYTPGSAFRLSSVPVYNAETGPSIGVRSGTYYIHSLPVSNGRIRMTNLISRVGKPGQVSFWVEISR,-2.45

row,Sequence,soluble fraction (log2)
1,HMEDDRLIQNLLLTAKNLVMDVGRMDESALAENEDTVRTAMLFALGYLYENRSNPDYHKLTLNLRSILFA,-0.493
2,HMDKGMQTMIDNLHKNTGKTLEEWIALVNRANFAKHGEVISFLKEKHGLTHGYANLVAHRLK,0.113
3,HMEVAASEQRDNLWALARRVLSGEQYDVLYLRYVEDFSVAQIADVVGKTQTHVKVLLFRGRNNLGSRLRS,0.199
4,HMNIKYDFPTNSPLEMMRNLFDSNSQIINDLKDGFAMANSLNEQGLANFFAERIDKHQFWSWQLSASL,-0.399
5,HMSVLDEVRKLSFHQRNAVFLFYFEGYSMKEIAQIFHVKEGTVSSWLTRARKQLRKQMEEEVLYDESLP,-0.526
6,HMTGDIGAEAAKAAALAHAGVTESQTAKMKVDRDWDDGRLEYDVEFDVGRTEYEYTIDGVTGAVLEYEQDI,0.0136
7,HMGSLGSLLKSVRNQRGLSRQQMAQSLNIGVRAIEQIEEGERKPDLELLNRYARGLMDPSVT,-0.0584
8,HMFDKVSVNNLAEAIGRLDGIYQDVLRLYYVHELPSKEIGKILNINHLTVNTRLKRAREKLFKMLKEE,-2.57
9,HMEITTLTGVLGAGRLDSALAAALPQYSRARIQALISDAALRINGQVVADAGSKKMSGQTFELNIPAPVP,-0.31
10,HMSDYKSALQEAVQTNKQSIEYVLIKESGPAHNKTFTFEVRIDNISYGVGTAKSKKEAEQIAAKDALDKLV,-0.0635
11,HMDQFMLQSAWLRAVQHVMKHTDDVGTQFAEEARRMHYGEADERPIRGQATSDEARALHDEGIEVMALPI,-0.303
12,HMATLQLPVPKITLYPGELIRSDHLTDQRFNARALYHSAVYKSREDIVGKVARRTLLPGQPIPVNALR,-0.057
13,HMKEYRKEGHLYFVTEDRNNEIYLWDFTDKPKHEFKEIITSVELQKVAKEGAMLQYKNGKYELYS,-0.171
14,HMGSGQIRYITENTVRVVYGTSKENEFVFQDGKPYPKDTPYHIHYTRNLEEYFMSGVEHDKNSKIILKVD,-0.803
15,HMSYTPGQWVEASMPNATFFRIVPSGNATADKMLAVATPMKVISTSGTYVKVELDSGDVGFVPEIMV,-0.46
16,HMSINQTIEGKKQGYWIIYGNMRNLQEYLSNEVIEEGQFKNSRKEGVWRKYFPGGQMKSEITYINGRP,-0.309
17,HMEPGEVQVDGLRFIAQPQERNDFEVALEQFRAGNFAAARKSFAAFINTYKQSGYLPSARFW,-0.0516
18,HMGVDASVDSKLDLLSQVLDSDQVKEQLPEAVLEQLAQNLDRWRSLHEESELQDDDIAELNRLLGLFGLG,0.0425
19,HMRVPQWLVDKIAAAGIDTHRSGPALKALAAKAGTPEQLDQAIARAKALRRRTGSTQSLNVGLLGSILEGT,-0.106
20,HMGDIQFMEYRINHSSGWIGKNISDFAAVSKNLVILIKRGQDVVIPRGPTAIMEDDVLVLHA,-1.6
21,HMSIESMVGRFGVVTKDVVANEMAGKVKVGREEFRATADIAVSSGTKVKVTHAEGITLTVVPE,0.378
22,HMREWPLWEIFIRGQHGLNHRHVGSLHAPDAAMAIGNARDVYTRRNEGVSIWAVRSADVVASVPSE,-2.33
23,HMGQKDYKTRLQEYFAKQGLKVNYEDTSHGPDHNKNFSTDVFLDGKIIGSGIGKSKKSSQQSAAKDALNIL,0.338
24,HMHLLGASIAAYRKKAGMTQEDLGRALFVSGQAVSRWERGGTPDSDMLPKIADVLGISLDTLFGRS,-0.559
25,HMSDEVNTDKAFRAIDSTLNRNVKGIAPRDHTLLRNTMITYFKSNDYIDYDTMIQSTLENYKPTELEQDKM,0.165
